# Target: WSTF (BAZ1B) (UniProt Q9UIG0)
# Sequence of UniProt Q9UIG0 (Q9UIG0 whole entry): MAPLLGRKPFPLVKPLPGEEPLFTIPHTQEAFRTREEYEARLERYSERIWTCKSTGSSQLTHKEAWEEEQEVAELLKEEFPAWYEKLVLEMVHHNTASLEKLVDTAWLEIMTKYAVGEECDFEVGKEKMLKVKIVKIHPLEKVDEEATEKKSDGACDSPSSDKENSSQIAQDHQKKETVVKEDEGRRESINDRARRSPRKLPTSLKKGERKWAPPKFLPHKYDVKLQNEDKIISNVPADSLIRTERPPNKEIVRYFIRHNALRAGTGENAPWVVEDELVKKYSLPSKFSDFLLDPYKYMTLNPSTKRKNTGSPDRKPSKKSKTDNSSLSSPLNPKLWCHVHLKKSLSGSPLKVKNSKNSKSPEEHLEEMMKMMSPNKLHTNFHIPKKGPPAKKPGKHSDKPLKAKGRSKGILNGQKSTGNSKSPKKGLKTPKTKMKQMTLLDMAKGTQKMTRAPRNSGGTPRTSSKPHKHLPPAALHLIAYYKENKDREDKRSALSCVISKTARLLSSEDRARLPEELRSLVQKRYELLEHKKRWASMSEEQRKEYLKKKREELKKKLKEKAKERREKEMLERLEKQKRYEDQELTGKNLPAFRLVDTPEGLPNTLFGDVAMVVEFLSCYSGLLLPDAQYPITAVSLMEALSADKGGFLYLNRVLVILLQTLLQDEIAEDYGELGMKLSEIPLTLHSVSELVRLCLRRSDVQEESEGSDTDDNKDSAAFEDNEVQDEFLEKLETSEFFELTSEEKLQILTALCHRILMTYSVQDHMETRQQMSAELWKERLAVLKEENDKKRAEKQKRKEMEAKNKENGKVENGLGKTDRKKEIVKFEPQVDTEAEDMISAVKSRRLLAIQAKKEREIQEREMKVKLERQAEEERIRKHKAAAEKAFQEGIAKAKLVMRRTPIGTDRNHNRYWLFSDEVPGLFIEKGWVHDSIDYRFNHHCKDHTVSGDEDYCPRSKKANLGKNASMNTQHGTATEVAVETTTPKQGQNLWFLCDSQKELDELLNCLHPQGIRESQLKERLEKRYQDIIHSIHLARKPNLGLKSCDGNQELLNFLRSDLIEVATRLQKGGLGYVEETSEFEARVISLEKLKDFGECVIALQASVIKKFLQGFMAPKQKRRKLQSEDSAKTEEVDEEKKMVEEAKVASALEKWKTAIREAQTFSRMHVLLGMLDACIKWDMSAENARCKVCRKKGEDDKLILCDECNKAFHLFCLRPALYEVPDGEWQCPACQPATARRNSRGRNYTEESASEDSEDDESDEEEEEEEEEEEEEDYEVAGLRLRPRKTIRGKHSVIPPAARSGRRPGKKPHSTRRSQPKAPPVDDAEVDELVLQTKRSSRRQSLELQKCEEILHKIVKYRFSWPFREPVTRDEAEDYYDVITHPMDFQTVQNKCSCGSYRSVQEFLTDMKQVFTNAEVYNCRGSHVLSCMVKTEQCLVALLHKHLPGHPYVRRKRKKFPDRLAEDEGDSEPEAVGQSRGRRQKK
substance,measurement,value
JMJD6,"level of WSTF hydroxylation (Western blot with Ab1, MCF-7 nucleoprotein)","after JMJD6 knockdown or mutation, the level of WSTF hydroxylation was significantly reduced"
